Source: US11026972B2, “Methods for generating macrophages with enhanced cancer phagocytosis” (Georgia State University Research Foundation, Inc., priority 2016, dated 2021)

How the values were obtained:
[1] = tested on: SIRPα^−/− and CD47^−/− mice; assay: Acute anemia and splenomegaly in mice deficient of CD47-SIRPα-mediated inhibition under inflammatory conditions; assay type: in vivo, mouse
Excerpt: FIGS. 1A-1K illustrate our assessment of acute anemia in mice deficient of CD47-SIRPα-mediated inhibition under inflammatory conditions. FIG. 1A includes a schematic drawing of a wild type (WT) and targeted allele of SIRPα (“SIRPα”) and data related to the generation of SIRPα “knock out” (KO) mice. […] Western blot (WB) analysis confirmed the depletion of SIRPα (˜120 kDa) protein in bone marrow leukocytes from SIRPα^−/− mice. FIG. 1B includes a photograph of intestinal tissue and a line graph charting the change in body weight of mice in which colitis had been induced by treatment with 1% or 2% DSS. […] FIGS. 1C and 1D include data related to acute anemia and splenomegaly developed in SIRPα^−/− mice with colitis. WT mice and SIRPα^−/− mice treated with DSS (2% DSS for WT and 1% DSS for SIRPα^−/−) for 10 days were analyzed for the presence of […] (FIG. 1C) and the content of hemoglobin in peripheral blood (FIG. 1D). FIG. 1E includes a panel of photomicrographs in which hematoxylin and eosin (H&E) was used to stain sections of spleens from WT and SIRPα^−/− mice treated with 2% and 1% DSS for 10 days. The bar graph of FIG. 1E illustrates the hemoglobin content in the spleens of WT and SIRPα^−/− mice treated with water or DSS. FIG. 1F is a pair of line graphs showing the time course over which anemia developed in SIRPα^−/− mice when colitis was induced with DSS and the levels of IL-17 in the serum over that same period of time. FIG. 1G is a diagram showing that IL-17 neutralization ameliorates anemia and splenomegaly in SIRPα^−/− mice with colitis. An anti-IL-17 antibody (10 μg, i.v.) was given on days 6 and 8 (arrows) during DSS-induction of colitis. FIG. 1H is a diagram showing that IL-17-containing colitic serum induces acute anemia in SIRPα^−/− mice. Serum samples collected from healthy (Ctl.) and colitic WT mice (2% DSS, 10 d) were administered to healthy SIRPα^−/− mice (i.v., 3×, arrows) with or without an anti-IL-17 antibody. FIGS. 1I and 1J are illustrative graphs showing that IL-17 directly induces acute anemia and splenomegaly in SIRPα^−/− mice and Cd47^−/− mice. Healthy mice were given recombinant IL-17 (10 μg/kg, i.v.) on days 1 and 3 (arrows, FIG. 1J); anemia and splenomegaly were analyzed on day 5 (FIG. 1I) or in a time course manner (FIG. 1J). FIG. 1K includes diagrams showing that acute anemia and splenomegaly in SIRPα^−/− and Cd47^−/− mice under zymosan-peritonitis (3×, every other day), IL-6 administration ([…], i.v.), LPS (0.25 mg/kg, i.p.), and CFA (1×, s.c.) administrations. Error bars are ±SEM **P<0.01, ***P<0.001 vs. control or the beginning time point. Data presented in each panel represent at least three independent experiments with n≥4, if applicable.
Hemoglobin assay: To assay blood hemoglobin, 10 μl of whole blood were obtained from the tail vein followed by lysis in 1 ml distilled water. After centrifugation (13,000 rpm, 30 min), the hemoglobin-containing supernatants were collected and measured for the optical density at the wavelength of 540 nm.
Animal inflammation models: To induce peritonitis, mice (6-8 wk, 20-22 g) were intraperitoneally injected with 0.5 mg zymosan A (Sigma) in 0.5 ml sterile PBS followed by euthanasia at 2, 4, 6 and 8 hours. […] The colitic condition was then assessed by observing diarrhea, measuring body weight loss, increases of inflammatory cytokines, the shortage of the large intestine and intestinal tissue analyses (after euthanasia). […]

[2] = tested on: SIRPα; assay: SIRPα immunoprecipitation and WB detection of SIRPα ITIM phosphorylation and SHP-1 association; assay type: cell-based, mouse; conditions: WT macrophages after LPS or IL-17 treatment
Experimental: FIGS. 4A-4E include data related to our experiments on macrophage phagocytic plasticity. FIG. 4A is a panel of illustrative line graphs showing that IL-10 inhibits macrophage phagocytosis toward “self.” PEMs were treated with LPS and activating cytokines along with various concentrations of IL-10 before testing their ability to phagocytose RBCs. FIG. 4B illustrates the phagocytic plasticity of WT red pulp macrophages. […] Treatments of cultured macrophages with LPS and IL-17 re-elicited their phagocytosis toward RBCs. […] Error bars are ±SEM. ***P<0.001 vs. freshly isolated splenic macrophages. FIG. 4D includes microscopic images of RBC phagocytosis by LPS- and IL-17-treated splenic macrophages. […] WT PEMs treated with LPS or IL-17 were further treated with Cd47^+ RBCs or Cd47-AP (10 min, 37° C.) followed by cell lysis, SIRPα immunoprecipitation, and WB detection of SIRPα phosphorylation (SIRPα^pY) and SHP-1 association. Data presented in each panel represent at least three independent experiments with n≥4, if applicable.
FIGS. 5A-5H include data related to our experiments on the role of Syk in phagocytic activation. […] PEMs were treated with LPS and cytokines in the presence of various inhibitors. After washing, inhibitor-free macrophages were tested for phagocytosis toward RBCs. […] PEMs treated with LPS and activating cytokines, or together with IL-10, were tested for total Syk and phosphorylated Syk (Syk^pY, specific at Y519/520). FIG. 5D describes PMA-induced macrophages phagocytosis toward RBCs. WT and SIRPα^−/− PEMs were treated with PMA (37° C., 30 min) before testing phagocytosis toward RBCs. FIG. 5E is a schematic depiction of PKC-Syk-mediated macrophage phagocytic activation toward self. […] Left: Inhibition of Syk by piceatannol and R406 prevented PMA-induced phagocytic activation. […] Error bars are ±SEM. ***P<0.001 vs. the respective controls. […] LPS-treated WT PEMs were further briefly treated with pervanadate before testing for phagocytosis toward RBCs. Error bars are ±SEM. ***P<0.001 vs. the respective controls. […]

Q: What does the source list for lipopolysaccharide [LPS]?
A: anemia and splenomegaly ([1]; SIRPα^−/− and CD47^−/− mice, zymosan 3 times every other day, IL-6 2×10 μg/kg i.v., LPS 0.25 mg/kg i.p., CFA s.c.): induced anemia and splenomegaly; SIRPα ITIM phosphorylation and SHP-1 association [2]: a level of SIRPα ITIM phosphorylation and SHP-1 association even in the absence of extracellular CD47 ligation

B1: IL-17: recombinant murine cytokine interleukin IL-17 (also known as IL-17A), PeproTech (protein, UniProt Q62386 26-158, looked up)
Interleukin-17A: AAIIPQSSACPNTEAKDFLQNVKVNLKVFNSLGAKVSSRRPSDYLNRSTSPWTLHRNEDPDRYPSVIWEAQCRHQRCVNAEGKLDHHMNSVLIQQEILVLKREPESCPFTFRVEKMLVGVGCTCVASIVRQAA
Q: Which “acute anemia and splenomegaly” value ([1]; CD47^−/− mice, IL-17 injection) does the source give for B1 here?
A: induced acute anemia and splenomegaly

Q: And the “acute anemia and splenomegaly” value ([1]; healthy SIRPα^−/− mice, 2×10 μg/kg, i.v.)?
A: directly induced acute anemia and splenomegaly

Q: And the “SIRPα ITIM phosphorylation and SHP-1 association” value [2]?
A: a level of SIRPα ITIM phosphorylation and SHP-1 association even in the absence of extracellular CD47 ligation
